Target: piggyBac transposase residues 1-558 (PB1-558) (cabbage looper moth)
Experiment: AUC

piggyBac transposase residues 1-558 (PB1-558) (domain or fragment)
stoichiometry N: 2

Reference: article doi:10.1101/2022.09.26.509586
